Source: the DeepSol protein solubility set

Assay: soluble on expression in E. coli; label from the status in PepcDB or PDB records
In the case of “MLPKSSLKETQQALANAIRLGNADPLNGYAASRLAVYTRLVRNNAFGFIDRCFVEAPLHIEPEYWKNAKENFVQNGNAHSPYFQDIAGEFLLFCQEKEIFDTNILALMDFENTQLLAEVSLAKVPEKFEWNRHSVMQLSGAAYLKSYDVDFLSSDFKQFDDTPIQAIIWRDSDFRIQQQILSELDYWLLSYLQEQPNSLENVLSALNTMVEDSTSIIPLLEQVWMKWVTSEVIYPEQR”, the “soluble on expression in E. coli” value is reported as “not soluble”.
In the case of “MAHHHHHHMEAKLSSALRTCDKCRTYADLCRTFEAKVSPIVEQALQSPLVKAPRDHTTPDECSPRVAELREALCTRLGADKATPAEDDVWFLIYRTVSNFVERQQRKRSRDQDGTSLSTLVTNCFVLLCTRTLPQLDHMKLRWGFLKKERAALESSDAYVHSNASERRKLQLNATSVLSVFSERAHKHSFTFVWMLCVEKAGEAALHVHLLHRVGSVVLPYLTNPLVLADYLTGCFSSGGIISILSLQGLFLLMLDHGLEYPNYYEQLYSLLTPDVFASRYRYELFRLLDLSMTSLRVPSYIAASVIKRVAQVSLMAPAPTLYFSLPFLRKVLQSHPNCLALIHRSSREAVIPDDMADQDTDTVTAQSAKAQAMRDTAALFDGRDPFDDRAKLLETHALSSTLWELTALERHFMPVVPLMVSAFSSTAEDKTPLRYEKSYGRLFTAEVTRAIDCHNLPTIAYEAPSEADPTDLLSL”, the “soluble on expression in E. coli” value is reported as “soluble”.
In the case of “MGVFRTRFTETFGVEHPIMQGGMQWVGRAEMAAAVANAGGLATLSALTQPSPEALAAEIARCRELTDRPFGVNLTLLPTQKPVPYAEYRAAIIEAGIRVVETAGNDPGEHIAEFRRHGVKVIHKCTAVRHALKAERLGVDAVSIDGFECAGHPGEDDIPGLVLLPAAANRLRVPIIASGGFADGRGLVAALALGADAINMGTRFLATRECPIHPAVKAAIRAADERSTDLIMRSLRNTARVARNAISQEVLAIEARGGAGYADIAALVSGQRGRQVYQQGDTDLGIWSAGMVQGLIDDEPACAELLRDIVEQARQLVRQRLEGMLAGV”, the “soluble on expression in E. coli” value is reported as “soluble”.
With “VKRFWENVGKPNDTTDGRGTTSLAMTPISQTPGLLAEAMVDLGAIEHNVRVLREHAGHAQLMAVVKADGYGHGATRVAQTALGAGAAELGVATVDEALALRADGITAPVLAWLHPPGIDFGPALLADVQVAVSSLRQLDELLHAVRRTGRTATVTVKVDTGLNRNGVGPAQFPAMLTALRQAMAEDAVRLRGLMSHMVYADKPDDSINDVQAQRFTAFLAQAREQGVRFEVAHLSNSSATMARPDLTFDLVRPGIAVYGLSPVPALGDMGLVPAMTVKCAVALVKSIRAGEGVSYGHTWIAPRDTNLALLPIGYADGVFRSLGGRLEVLINGRRCPGVGRICMDQFMVDLGPGPLDVAEGDEAILFGPGIRGEPTAQDWADLVGTIHYEVVTSPRGRITRTYREAENR” the “soluble on expression in E. coli” value was “soluble”.
In the case of “MSLIVDREELEYDGSQLRRAFAHERYGIKGRAVVVFRGPMDVRTEYTADAEDVGSPIRGNDVLHLLVDDPTRADPLVAGLLQRLLVVVTKEVIEKELSTDLDRDGDDLLHDGRKLTVSVFKPAGPGSLAHLGINVTTEGVPVPASSLRDLGYRGDPLDLGRRVAVEFVREITDVELDLTKIRWEGHHHHHH”, the “soluble on expression in E. coli” value is reported as “soluble”.
For “MGSDKIHHHHHHMEGIKMRSVVVKEPGQLNIESRPVPVPGAHEVRVKIAFAGICGSDVHIYHGHNPFAKYPRVIGHEFYGIIDAVGEQVSPARIGERVAVDPVVSCGHCYPCSVGRPNVCTQLQVIGVHRDGGFSDYACVPAKNAWRIPEAISDRQATMVEPFTIAANITAQLQPTAQDIALVYGAGPMGLTIIQALKGVYGVKQVIVVDRIAERLQMARENGADLTLDNTDQPLAEQLAQRQLAPTLVIDAACHPAILQEAILLASPAARIGILGFSGEASTLTQQSITSKEISIFSSRLNSGRFPLVIDWMEKGLIRPEALITHCMPLEQVKEAMEIFANDRKTCCKVLLQLG”, the “soluble on expression in E. coli” value was “not soluble”.
For “SLYANYKRVYENEALETLKVYTTFLRNALIEVNTLMVHSQHFYKSFMGNLKYILDSVAVNKLKSNYNKDMPVVVVSAGPSLEKNIRFLKDCQDKCIIITGGRTLKTLLDLDIKPDYVCVVDPDVPAYDVMRGTFDCTAPLLFCEYTYYEILRDYKGEKIFFNDIGMLGLQKEFLNYDVDNIFEGGSVAHVCAGLGVYIGGDPIIFIGQDLAYTNDKAHADSAGDTNVEGDKKIVYVEDINGDIIKSDSVLNFYRIKLEEMTQLFKENNFINSTEGGANIKGTKIIPLKEVLKKFCLNKKKDYTLGENIGKYVSREQVVCKLMDAKKIMNKVKKEIEASIDLCSEFLEKENRWNKTIIDNINRKLSKTDKLINSSIGEMEFMRNLILPNIYESSMNKEYKQKYNETEKEKIKRVYKKNILLYNGIKTSIMEAGPEIEKCIKSLKES”, the “soluble on expression in E. coli” value was “not soluble”.
With “STDIQMTQSPSSLSASVGDRVTITCQASQDINNYLIWYQQKPGQAPKLLIYDASTLETGVPSRFSGSGSGTEFTFTISSLQPEDLATYYCQQYDNLPYTFGQGTKLEIKR” the “soluble on expression in E. coli” value was “soluble”.
In the case of “MPVFSINVNVKVPAEKQNEILKELSTVLGKLLNKPEQYMCIHFHEDQGILYAGTTEPAGFAVLKSIGGVGSAKQNNAISAVVFPIIEKHLGIPGNRLYIEFVNLGAADIAYNGQTFA”, the “soluble on expression in E. coli” value is reported as “not soluble”.
With “MHRRGVGAGAIAKKKLAEAKYKERGTVLAEDQLAQMSKQLDMFKTNLEEFASKHKQEIRKNPEFRVQFQDMCATIGVDPLASGKGFWSEMLGVGDFYYELGVQIIEVCLALKHRNGGLITLEELHQQVLKGRGKFAQDVSQDDLIRAIKKLKALGTGFGIIPVGGTYLIQSVPAELNMDHTVVLQLAEKNGYVTVSEIKASLKWETERARQVLEHLLKEGLAWLDLQAPGEAHYWLPALFTDLYSQEITAEEAREALP” the “soluble on expression in E. coli” value was “soluble”.
With “AIADTRSLQDFQDLCTFDVFKSFGHYYGYGVDQQALIDQEFKRIKGVTYLDHAGTTLFPESLIKGFHDDIPRNVYGNPHSHNSSSRLTHDTVESVRYKILAHFNTSPEDYSVIFTSGCTAALKLVADTFPWKPMSNKEPGSQFCYLTDNHTSVVGIRGATALQGVGTISVSPREVETRARNKTQTNGEEECSTPHLFCYPAQSNFSGRKYSLSYVKGIQSQQLYPACEHHGQWFVLLDAACFVSCSPLDLSQYPADFVPISFYKMFGFPTGLGALLVRNEAAEVLRKTYFGGGTAAAYLVEENYFIPKPNLASR” the “soluble on expression in E. coli” value was “soluble”.
With “MKAYQRYRFPSLRSVARDASARDSAALAAEAQCADIDARIEEGFRQGREDGYRDGFEHGEAEGMKQGREAGFAAGAQQARDALRSEYAGIAKTLDAMRDAFVRVQAEYLAARRTELVDVVAKVAKQVIRCELTLQPSQMAALIEETLGTMPASSDAPEVHLSPDDHERLAGLLPERARHWRLVPDARLEAGECRVLLGGNEADAGCQHRLDACVERIGEQLPGAPDVEAAAT” the “soluble on expression in E. coli” value was “not soluble”.
With “MSLQYQNQDNFPERIEYLVDKLNGPSEFARKTGVTLSTITRWRKGEADPSRSNLVKIAEVTGVSIEWLATGKIKEEKTTEEKPAGSLVSRAFERMQAMLEEGVSMIDSYSSINVSAGFGSFNEGITQPDGQEPYSDELLTSLGVKADNCAVFWANGNSMLPTINNYDQMLVDLSRKEIQGDRIYLVQNGESVWVKRVKMEWDGISLISDNKEEYPPISITGENAQNLQIIGQVVHIGHSLIEGHHHHHH” the “soluble on expression in E. coli” value was “soluble”.
In the case of “SNAMWKRMTAKAEGLYIADTKSFVTKQMDKLDFDYGGIPGDLHFGLTKKAGAREPMFSRGTEIFNRRQISIVSIEECNEIALKMGVPRILPEWLGANVAVSGMPDLTSLKEGSRIIFPSGAALLCEGENDPCIQPGEVIQSYYPDQPKLASAFVRHALGIRGIVCIVERPGAVYTGDEIEVHSYQRKVKRKAERV”, the “soluble on expression in E. coli” value is reported as “soluble”.
For “AHHHHHHGSKKITISSLLLLLLISTNLNLAYDSQESGIKNIIILIGDGMGMSHVQITKLVYGHLNMEEFPIIGFELTESLSGEVTDSAAAGTAIATGVKTYNRMISVTNITGKVTNLTTLLEIAQVLGKSTGLVTTTRITHATPAVFASHVPDRDMEEEIARQLIAHRVNVLLGGGRKKFDENTLKMAKEQGYNIVFTKEELEKAEGEFILGLFADSHIPYVLDRKPEDVGLLEMTKKAISILEKNPNGFFLMIEGGRIDHAAHENDIASVVAETKEFDDVVGYVLEYAKKRGDTLVIVLADHETGGLGLGLTYGDAINEDVIRNINASVSKIASEIRATNDIKRVIKKYTGFELTEDEINYIEEAINLADEYALQNAIADIINKRVGVGFVSHKHTGAPVSLLAYGPGAENFAGFLHHVDTAKLIAKLMLFGKKDIPVTILGISGVKGDITGDFKVDEQDAYVTLMMLLGERVDTELERKVDMNNNGIIELGDVLLILQES”, the “soluble on expression in E. coli” value was “soluble”.
